From article PMC2955292 (Chemistry & biology, 2010)

Target: E. coli ClpP (Escherichia coli, UniProt P0A6G7)
Conditions: Figure S1A; SDS-PAGE

Sequence of E. coli ClpP (P0A6G7 15-207): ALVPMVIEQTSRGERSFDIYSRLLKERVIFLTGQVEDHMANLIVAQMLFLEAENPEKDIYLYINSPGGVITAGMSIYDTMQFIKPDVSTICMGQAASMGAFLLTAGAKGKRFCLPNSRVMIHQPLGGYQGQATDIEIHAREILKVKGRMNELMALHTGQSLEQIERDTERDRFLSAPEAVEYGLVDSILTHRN

B1: ClpA: AAA+ family ATPase that assembles into hexameric rings and binds ClpP (protein)
chain: MLNQELELSLNMAFARAREHRHEFMTVEHLLLALLSNPSAREALEACSVDLVALRQELEAFIEQTTPVLPASEEERDTQPTLSFQRVLQRAVFHVQSSGRNEVTGANVLVAIFSEQESQAAYLLRKHEVSRLDVVNFISHGTRKDEPTQSSDPGSQPNSEEQAGGEERMENFTTNLNQLARVGGIDPLIGREKELERAIQVLCRRRKNNPLLVGESGVGKTAIAEGLAWRIVQGDVPEVMADCTIYSLDIGSLLAGTKYRGDFEKRFKALLKQLEQDTNSILFIDEIHTIIGAGAASGGQVDAANLIKPLLSSGKIRVIGSTTYQEFSNIFEKDRALARRFQKIDITEPSIEETVQIINGLKPKYEAHHDVRYTAKAVRAAVELAVKYINDRHLPDKAIDVIDEAGARARLMPVSKRKKTVNVADIESVVARIARIPEKSVSQSDRDTLKNLGDRLKMLVFGQDKAIEALTEAIKMARAGLGHEHKPVGSFLFAGPTGVGKTEVTVQLSKALGIELLRFDMSEYMERHTVSRLIGAPPGYVGFDQGGLLTDAVIKHPHAVLLLDEIEKAHPDVFNILLQVMDNGTLTDNNGRKADFRNVVLVMTTNAGVRETERKSIGLIHQDNSTDAMEEIKKIFTPEFRNRLDNIIWFDHLSTDVIHQVVDKFIVELQVQLDQKGVSLEVSQEARNWLAEKGYDRAMGARPMARVIQDNLKKPLANELLFGSLVDGGQVTVALDKEKNELTYGFQSAQKHKAEAAH
pattern of β-casein degradation products (processivity): promoted processive degradation of β-casein
